Data published in patent JP2011160681A.

Columns and labels:
[1] = molecular target: InfA peptide (GMVDGWYG) (Influenza A virus); experiment: ITC, 25 °C, peptide titrated into antibody
[2] = molecular target: InfA peptide (GMVDGWYG) (Influenza A virus); experiment: ITC (summary in the description)

B1: InfA-15 monoclonal antibody (antibody, V domains shown)
VH: QVQLKESGPGLVAPSQSLSITCTVSGFSLTKSGLHWVRQPPGKGLEWLGVIWAGGSTDYNSALTSRLTITKDNSKSQIFFRLNSLQTADTAMYYCVRSTFLYAMDFWGQGTSVTVS
VL: DAVMTQTPLSLPVSLGDQASISCRSSPSLEHSNGNTYLNWYLQKPGQSPQLLIYRVSNRFSGVPDRFSGSGSGTDFTLKISRVEAEDLGVYFCLQVTHVPPTFGGGTKLEIKRA
- Ka [1]: 8.6e+06 M⁻¹
- 結合定数 (order of magnitude, unit M as printed) [2]: 1000 nM
